Assay results as given in patent US10309966B2, “Personalized therapy of inflammation-associated cancer using methods of assessing the susceptibility of a subject to the treatment with EGFR inhibitors/antagonists” (Medizinische Universität Wien, priority 2014, dated 2019).

B1: gp130: glycoprotein-130, exogenously administered to inhibit IL-6 trans-signaling (protein, UniProt P40189 23-918, looked up)
Interleukin-6 receptor …: ELLDPCGYISPESPVVQLHSNFTAVCVLKEKCMDYFHVNANYIVWKTNHFTIPKEQYTIINRTASSVTFTDIASLNIQLTCNILTFGQLEQNVYGITIISGLPPEKPKNLSCIVNEGKKMRCEWDGGRETHLETNFTLKSEWATHKFADCKAKRDTPTSCTVDYSTVYFVNIEVWVEAENALGKVTSDHINFDPVYKVKPNPPHNLSVINSEELSSILKLTWTNPSIKSVIILKYNIQYRTKDASTWSQIPPEDTASTRSSFTVQDLKPFTEYVFRIRCMKEDGKGYWSDWSEEASGITYEDRPSKAPSFWYKIDPSHTQGYRTVQLVWKTLPPFEANGKILDYEVTLTRWKSHLQNYTVNATKLTVNLTNDRYLATLTVRNLVGKSDAAVLTIPACDFQATHPVMDLKAFPKDNMLWVEWTTPRESVKKYILEWCVLSDKAPCITDWQQEDGTVHRTYLRGNLAESKCYLITVTPVYADGPGSPESIKAYLKQAPPSKGPTVRTKKVGKNEAVLEWDQLPVDVQNGFIRNYTIFYRTIIGNETAVNVDSSHTEYTLSSLTSDTLYMVRMAAYTDEGGKDGPEFTFTTPKFAQGEIEAIVVPVCLAFLLTTLLGVLFCFNKRDLIKKHIWPNVPDPSKSHIAQWSPHTPPRHNFNSKDQMYSDGNFTDVSVVEIEANDKKPFPEDLKSLDLFKKEKINTEGHSSGIGGSSCMSSSRPSISSSDENESSQNTSSTVQYSTVVHSGYRHQVPSVQVFSRSESTQPLLDSEERPEDLQLVDHVDGGDGILPRQQYFKQNCSQHESSPDISHFERSKQVSSVNEEDFVRLKQQISDHISQSCGSGQMKMFQEVSAADAFGPGTEGQVERFETVGMEAATDEGMPKSYLPQTVRQGGYMPQ
B2: IL-6: recombinant mouse IL-6 administered by oral gavage (protein, UniProt P08505 25-211, looked up)
Interleukin-6: FPTSQVRRGDFTEDTTPNRPVYTTSQVGGLITHVLWEIVEMRKELCNGNSDCMNNDDALAENNLKLPEIQRNDGCYQTGYNQEICLLKISSGLLEYHSYLEYMKNNLKDNKKDKARVLQRDTETLIHIFNQEVKDLHKIVLPTPISNALLTDKLESQKEWLRTKTIQFILKSLEEFLKVTLRSTRQT

Tests used:
[1] = test system: IL-6 trans-signaling; settings: exogenous administration, mouse model of CAC; cited from earlier work
[2] = test system: DSS-induced colitis; assay: Oral recombinant IL-6 during DSS-induced colitis in EGFR mutant mice; format: in vivo, mouse; settings: for DSS-induced weight loss: IL-6 orally during DSS, FIG. 17B; for epithelial proliferation during colitis (BrdU): FIGS. 18A, 26A
Procedure: Colitis was induced by administering 2.5% dextran sulfate sodium salt (DSS) (MP Biomedicals, 0216011080) in autoclaved drinking water for 5 d followed by 5 d of normal water (Chalaris, A. et al., 2010). Colon tumors in mice were induced as previously described (Wirtz, S. et al., 2007; Tanaka, T. et al., 2003). Briefly, mice were injected i.p. with 7.5 mg/kg azoxymethane (AOM) (Sigma-Aldrich, A5486) followed by repeated administration of DSS. 300 U recombinant mouse IL-6 (ImmunoTools GmbH, Germany) was administered by oral gavage.
Mice were injected with 10 mg/kg BrdU 2.5 hrs prior to sacrifice. The colons were extracted, flushed with ice cold PBS to remove feces, fixed overnight at 4° C. in neutral buffered 4% formaldehyde as “Swiss Rolls”, which were further dehydrated, embedded in paraffin and sectioned. Sections were stained with Haematoxylin and Eosin (Sigma), Alcian blue, Giemsa and PAS. Colitis severity and tumor stage were scored and graded by pathologists in a blinded manner according to previously described criteria (Dube, P. E. et al., 2012; Musteanu, M. et al., 2010). For immunohistochemistry, sections were dewaxed, rehydrated and boiled in Citrate buffer pH 6.1 (S1699, Dakocytomation, Glostrup, Denmark) for antigen recovery. Endogenous peroxidase was quenched by incubation with 3% H2O2 in TBS, followed by blocking with 10% goat serum in 2% BSA in TBS—0.1% Tween. Sections were then incubated overnight with antibodies against β-catenin (Cell Signaling, Danvers, Mass.; 9582), cleaved caspase 3 (Cell Signaling; 9661), lysozyme (Dako; A0099), EGFR (sc-03, Santa Cruz Biotechnology, Santa Cruz, Calif.), pTyr705-STAT3 (9145, Cell Signaling), survivin (Cell Signaling; 2808) and synaptophysin (GTX100865, GeneTex Irvine, Calif.), respectively. All sections were further treated with SignalStain® Boost (Cell Signaling; 8114) to detect bound antibody and with liquid3-Amino-9-Ethylcarbazole Chromogen/Substrate (BP 1108, ID LABS™ ON, Canada) for peroxidase staining and counterstained with Haematoxylin (HHS32, Sigma-Aldrich). For BrdU staining, sections were treated with 2 N HCl after antigen recovery, blocked as described above and incubated with anti-BrdU antibody (347580, BD Biosciences) and further with secondary antibody (Invitrogen A-11018) and counterstained with DAPI.
Intestinal barrier permeability was assessed as previously described (Chalaris, A. et al., 2010). Briefly, mice were orally gavaged with 60 mg/kg FITC-Dextran (Sigma FD4), food and water were withdrawn 4 h prior to gavage. FITC levels were determined in the serum 4 h post gavage by absorption at 488 nm using standard dilutions of FITC-Dextran as reference.

Row | Molecule | colitis and tumor development [1] | DSS-induced weight loss ([2]; Egfr^wa2/wa2 mice) | epithelial proliferation during colitis (BrdU) ([2]; Egfr^wa2/wa2 mice) | apoptosis (cleaved Caspase 3) ([2]; Egfr^ΔIEC mice) | apoptosis (cleaved Caspase 3) ([2]; Egfr^ΔMYL and Egfr^wa2/wa2 mice, FIGS. 18B, 26B) | pY-STAT3 nuclear localization in crypts ([2]; Egfr^ΔMYL mice during DSS treatment, FIGS. 18C, 18D) | DSS-induced weight loss ([2]; Egfr^ΔMYL mice) | number of ulcers ([2]; Egfr^ΔMYL mice, FIG. 17D) | loss of epithelial barrier function (FITC-dextran in serum) ([2]; Egfr^ΔMYL mice, FIG. 17E) | epithelial proliferation during colitis (BrdU) ([2]; Egfr^ΔMYL mice)
1 | B1 | substantial decrease |  |  |  |  |  |  |  |  | 
2 | B2 |  | partially rescued | partially | decreased | not affected | fully restored | able to protect | decreased | protected | fully
